Assay [1] addresses T1, human PILRA, G78 variant, ectopically expressed on 293 cells (human, UniProt Q9UKJ1 20-303).
T1 construct: the cells are labelled G78; also called hA G78 OE; hA
Put plainly: screening summary, TCP groups.

Assay [2] addresses T2, human PILRA, c-term His-Avi tag (human, UniProt Q9UKJ1 20-197, limits assumed).
T2 construct: not shown: C-terminal His-Avi tag
Put plainly: SPR (Biacore), antibody captured, PILRA as analyte. The essentials: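 Antibodies were captured at 10 μg/ml on an anti-huFc or anti-msFc CM5 surface, and human PILRA was flowed at 33, 100 and 300 nM in HBSTE/0.5% BSA, pH 7.4. The surface was regenerated with 10 mM glycine-HCl, pH 2.1, after each analyte. Curves were double-referenced with buffer injections.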
(In SPR one partner is held on a chip, and binding of the other changes the refractive index at the surface.)

For assay [3], the target named is cynomolgus PILRA, ectopically expressed on 293 cells (cynomolgus monkey). Put plainly: screening summary, TCP groups.

The record followed here is patent publication US20240425587A1 (Alector, published 2024).

T2 sequence (Q9UKJ1 20-197 limits assumed): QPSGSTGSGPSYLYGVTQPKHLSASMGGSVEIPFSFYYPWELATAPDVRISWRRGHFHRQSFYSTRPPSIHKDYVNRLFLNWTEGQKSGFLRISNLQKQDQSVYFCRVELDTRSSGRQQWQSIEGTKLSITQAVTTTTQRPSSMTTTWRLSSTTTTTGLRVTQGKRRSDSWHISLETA
T1 sequence (Q9UKJ1 other isoform, or with tags, fused parts or gaps mutant): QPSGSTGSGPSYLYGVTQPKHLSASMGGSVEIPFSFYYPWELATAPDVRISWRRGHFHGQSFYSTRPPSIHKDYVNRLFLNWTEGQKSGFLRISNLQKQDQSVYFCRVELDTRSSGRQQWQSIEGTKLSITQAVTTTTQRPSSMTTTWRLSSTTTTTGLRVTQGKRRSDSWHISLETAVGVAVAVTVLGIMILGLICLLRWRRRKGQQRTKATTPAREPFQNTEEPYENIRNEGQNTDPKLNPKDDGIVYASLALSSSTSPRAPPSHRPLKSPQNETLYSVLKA
Chain of cynomolgus PILRA, ectopically expressed on 293 cells (cynomolgus monkey) (chain, as listed by the source): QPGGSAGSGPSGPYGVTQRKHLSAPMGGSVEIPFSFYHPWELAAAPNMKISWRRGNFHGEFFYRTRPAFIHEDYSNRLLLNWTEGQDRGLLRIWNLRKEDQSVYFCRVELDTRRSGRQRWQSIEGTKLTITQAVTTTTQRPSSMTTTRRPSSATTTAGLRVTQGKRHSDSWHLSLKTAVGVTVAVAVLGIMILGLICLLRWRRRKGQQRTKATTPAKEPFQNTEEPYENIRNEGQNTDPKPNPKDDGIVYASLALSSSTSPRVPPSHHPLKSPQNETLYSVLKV

B1: D9 (antibody, V domains shown)
VH: QVQLKESGPGLVAPSQSLSITCSVSGFSLSSYAINWVREPPGKGLEWLGVIWTGGGTNYNSALKSRLSISKDNSKSQVFLKMNSLQTDDTARYYCARNSIYYDYDGFAYWGQGTLVTVSA
VL: DIQMTQSSSYLSVSLGGRVTITCKASDHINNWLAWYQQKPGNAPRLLISGATSLETGVPSRFSGSGSGKDYTLSITSLQTEDFTTYYCQQYWSTPYTFGGGTKLEIK
notes: second hybridoma campaign
In the case of B1, in assay [1], the binding result was “binds”.

B2: C3 (antibody, V domains shown)
VH: EVHLQQSGPELVKPGASVKISCKASGYTFTDYYLNWVKLSLGKSLEWIGDINPNDGDTSYNQTFKGKATLTVDKSSSTAYMELRSLTSEDSAVYYCARRASSYYSNYGWYFDVWGTGTTVTVSS
VL: DILLTQSPAILSVSPGERVSFSCRASQSIGTSIHWYQQRTNGSPRLLIKFASESISGIPSRFSGSGSGTDFTLSINTVESEDIGDYYCQESNSWPTTFGAGTKLELK
notes: first hybridoma campaign
In assay [2], B2 returned an equilibrium dissociation constant (Kd) of 8.3 nM, a koff of 0.0042 s⁻¹, a kon of 510000 M⁻¹ s⁻¹ and a t½ of 2.7 min. In addition, the binding result in assay [3] was “binds”.

What is called Kd is the free concentration of one partner at which half of the binding sites on the other are occupied at equilibrium, for simple one-to-one binding. Read a low Kd as tighter binding. As a reminder, the koff is the rate constant with which the complex falls apart. By kon is commonly meant a measure of how fast the partners come together. A higher kon goes with faster complex formation. Usually t½ stands for the time needed for the level to fall by half in the phase considered.
